Series [1] addresses H3KC36me3 nucleosomes (recombinant MLA nucleosomes reconstituted on 601 DNA) (Drosophila) (UniProt P02299).
For series [2] the target is unchanged. Kind of series: native gel or EMSA; 1.5 or 3 pmol reconstituted nucleosome with 0, 0.5, 1, 2 and 3 molar equivalents of glutathione agarose purified GST-PWWP protein; 0.2X TBE, 4°C, native 5% gel, ethidium bromide; band densities fitted to a 2:1 model. For orientation: Mobility shift assays separate free from complexed probe on a gel.
For series [3], the system named is PSIP1-PWWP (human). Kind of series: NMR titration (1H-15N HSQC CSP). To be noted: EMSA: 0.2X TBE, 4 C, 1.5 or 3 pmol nucleosome in 8 uL, up to 3 molar equivalents of protein, native 5% gel; NMR: 293 K (DNA titration), 308 K (nucleosome …).
The next series has as its system GST-PSIP1-PWWP (human). Put plainly: EMSA. To be noted: histone H3KC36me3 (methyl-lysine analogue); EMSA: 0.2X TBE, 4 C, 1.5 or 3 pmol nucleosome in 8 uL, up to 3 molar equivalents of protein, native 5% gel; NMR: 293 K (DNA titration), 308 K (nucleosome …).
The subject of series [4] is PSIP1-PWWP (human). Put plainly: NMR methyl-TROSY line shape fit. To be noted: 308 K; 1:2 nucleosome:PWWP model; koff 500 s-1; histone H3KC36me3 (methyl-lysine analogue); EMSA: 0.2X TBE, 4 C, 1.5 or 3 pmol nucleosome in 8 uL, up to 3 molar equivalents of protein, native 5% gel; NMR: 293 K (DNA titration), 308 K (nucleosome …).
Series [5] deals with PSIP1-PWWP domain (residues 3 to 100, GST removed by thrombin) (human) (UniProt O75475). Kind of series: NMR titration; 1H-15N HSQC of 0.3 mM PWWP, peptide added; 20 mM NaPi pH 7.0, 100 mM NaCl, 293 K, 600 MHz; chemical shift perturbation curves fitted in fast exchange.

Read-outs that look alike come from different tables or passages of the source.

Experimental findings from article PMC3663649, “Nucleosomal DNA binding drives the recognition of H3K36-methylated nucleosomes by the PSIP1-PWWP domain” (Epigenetics & Chromatin, 2013) are described below.

Usually Kd stands for the concentration at which binding is half-saturated.

PSIP1-PWWP domain (residues 3 to 100, GST removed by thrombin) (human), sequence (O75475 3-100): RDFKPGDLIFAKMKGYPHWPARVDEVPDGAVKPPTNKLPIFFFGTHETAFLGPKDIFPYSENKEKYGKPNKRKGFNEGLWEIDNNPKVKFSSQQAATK
GST-PWWP (PSIP1-PWWP domain, residues 3 to 100, GST fusion), sequence (O75475 3-100): as above
PSIP1-PWWP domain (residues 3 to 100, GST removed by thrombin), sequence (O75475 3-100): as above

Take “PSIP1-PWWP domain (residues 3 to 100, GST removed by thrombin) (from UniProt O75475 3-100) (domain or fragment)”: the Kd in series [1] came to 1.5 µM. Consider “GST-PWWP (PSIP1-PWWP domain, residues 3 to 100, GST fusion) (from UniProt O75475 3-100) (domain or fragment)”, for which, in series [2], the dissociation constant (Kd) turned out to be 0.5 µM. Turning to SRE-DNA dsDNA fragment, the Kd in the series on PSIP1-PWWP (human) [3] came out at 150 µM.

With H3KC36me3 MLA nucleosome on 601 DNA, the Kd was 0.5 µM in the series with GST-PSIP1-PWWP (human) and 1.5 µM in the series on PSIP1-PWWP (human) [4]. In the case of H3KC36me3 peptide (NMR titration), in series [5], the dissociation constant Kd stood at 11000 µM.
